The results in this text go back to patent WO2025083273A1 (dated 2025).

For experiment [1], the target named is T1, DR3-8i (human).
T1 construct: also called purified monomeric DR3-8i antigen protein
T1 chain: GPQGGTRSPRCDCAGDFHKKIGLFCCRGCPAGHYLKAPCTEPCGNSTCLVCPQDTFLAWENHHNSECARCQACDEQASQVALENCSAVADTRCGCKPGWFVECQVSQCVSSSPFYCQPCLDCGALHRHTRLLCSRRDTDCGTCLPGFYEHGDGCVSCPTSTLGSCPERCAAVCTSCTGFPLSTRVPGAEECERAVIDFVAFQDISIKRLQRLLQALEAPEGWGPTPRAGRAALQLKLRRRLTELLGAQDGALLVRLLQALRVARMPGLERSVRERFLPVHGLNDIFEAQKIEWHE
Put plainly: BLI, IgG captured on protein A, DR3-8i in solution; single experiment, column not clear.

Experiment [2] deals with T2, human DR3 (TNFRSF25) expressed on cells (human, UniProt Q93038 25-417).
T2 sequence: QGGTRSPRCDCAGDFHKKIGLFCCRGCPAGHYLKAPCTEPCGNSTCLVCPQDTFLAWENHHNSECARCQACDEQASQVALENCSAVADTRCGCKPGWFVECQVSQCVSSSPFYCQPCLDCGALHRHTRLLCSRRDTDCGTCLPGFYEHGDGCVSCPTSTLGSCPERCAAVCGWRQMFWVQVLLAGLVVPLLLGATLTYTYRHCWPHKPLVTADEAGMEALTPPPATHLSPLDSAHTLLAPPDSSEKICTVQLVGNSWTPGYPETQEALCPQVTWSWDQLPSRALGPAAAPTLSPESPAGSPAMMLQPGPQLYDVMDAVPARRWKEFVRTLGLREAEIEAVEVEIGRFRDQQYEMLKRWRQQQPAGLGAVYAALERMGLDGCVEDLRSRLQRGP
Briefly: cell-based or functional assay.

In experiment [3] the target is T1, DR3-8i. Briefly: BLI, IgG captured on protein A, DR3-8i in solution; Experiment 1.
Experiment [4] has as its target T1, DR3-8i. Briefly: BLI, IgG captured on protein A, DR3-8i in solution; Experiment 2.
The target of experiment [5] is T1, DR3-8i. Put plainly: BLI, IgG captured on protein A, DR3-8i in solution; Average.

B1: VHg1/VLg4 (antibody, human IgG1, V domains shown)
VH: QVQLVQSGGGLVQPGGSLRLSCAASGFTFSSYAMSWVRQAPGKGLEWVSTISDGDSYSYFPDSVKDRFTISRDNSKNTLYLQMNSLRAEDTSVYYCARDRIYGSVQYYAMDYWGQGTLVTVSS
VL: DVVMTQSPDSLAVSLGERATISCRASESVEFSGTSLMQWYQQKPRQPLKLLIYAASNVESGVPDRFSGSGSGTDFTLTISSLQAEDVAVYYCQQSRKLPYTFGQGTRLEIK
notes: human IgG1
The molecule B1 returned a Kd in the experiment with DR3-8i [1] of 196 pM. Further, the “Signal (FLU)” value in experiment [2] was 2.09e+06 FLU.

B2: VHg10/VLg6 (antibody, human IgG1, V domains shown)
VH: EVQLVESGGGLVQPGGSLRLSCAASGFTFSSYAMSWVRQAPGKGLEWVSTISDGDSYSYFPDSVKDRFTISRDNSKNTLYLQMNSLRAEDTAVYYCARDRIYGSVQYYAMDYWGQGTLVTVSS
VL: DVVMTQSPPSLPVTPGEPASISCRASESVEFSGTSLMQWYLQKPGQSPQVLIYAASNVESGVPDRFSGSGSGTDFTLKISRVEAEDVGVYYCQQSRKLPYTFGQGTRLEIK
notes: human IgG1
Turning to B2, the values for the Kd in the experiment with DR3-8i [3], with DR3-8i [4] and with DR3-8i [5] were 418 pM, 234 pM and 326 pM, respectively. In addition, the “Signal (FLU)” value in experiment [2] was 2.75e+06 FLU.

B3: VHg2/VLg2 (antibody, human IgG1, V domains shown)
VH: QMQLVQSGGGLVKPGGSLRLSCAASGFTFSSYAMSWIRQAPGKGLEWVSTISDGDSYSYFPDSVKDRFTISRDNAKNSLYLQMNSLRAEDTAVYYCTRDRIYGSVQYYAMDYWGRGTLVTVSS
VL: DIQLTQSPSSLSASVGDRVTITCRASESVEFSGTSLMQWYQQKAGLAPKLLIYAASNVESGVPSRFSGSGSGTDFTLTISSLQPEDFGTYYCQQSRKLPYTFGQGTRLEIK
notes: human IgG1
With B3, the Kd with DR3-8i [3] amounted to 1 pM; in the experiment with DR3-8i [4], 210 pM; in the experiment with DR3-8i [5] it was 106 pM. In addition, the “EC50 (pM), DR3 Jurkat reporter” value in experiment [2] amounted to 103 pM. In addition, the “Signal (FLU)” value in experiment [2] is 2.5e+06 FLU.

B4: VHg2/VLs10 (antibody, human IgG1, V domains shown)
VH: QMQLVQSGGGLVKPGGSLRLSCAASGFTFSSYAMSWIRQAPGKGLEWVSTISDGDSYSYFPDSVKDRFTISRDNAKNSLYLQMNSLRAEDTAVYYCTRDRIYGSVQYYAMDYWGRGTLVTVSS
VL: ETTLTQSPGTLSLSPGERATLSCRASQSVSSSSLAWYQQKPGQAPRLLIYGASSRATGIPDRFSGSGSGTDFTLTISRLEPEDFAVYYCHQYGGSWTFGKGTKVEIK
notes: human IgG1; also called VHg2_VLg10
For B4, the Kd in the experiment with DR3-8i [3] came out at 410 pM; in the experiment with DR3-8i [4], 420 pM; in the experiment with DR3-8i [5], 415 pM. Further, the “EC50 (pM), DR3 Jurkat reporter” value in experiment [2] turned out to be 644 pM. Besides, the “Signal (FLU)” value in experiment [2] amounted to 2.34e+06 FLU.

B5: VHg1/VLg2 (antibody, human IgG1, V domains shown)
VH: QVQLVQSGGGLVQPGGSLRLSCAASGFTFSSYAMSWVRQAPGKGLEWVSTISDGDSYSYFPDSVKDRFTISRDNSKNTLYLQMNSLRAEDTSVYYCARDRIYGSVQYYAMDYWGQGTLVTVSS
VL: DIQLTQSPSSLSASVGDRVTITCRASESVEFSGTSLMQWYQQKAGLAPKLLIYAASNVESGVPSRFSGSGSGTDFTLTISSLQPEDFGTYYCQQSRKLPYTFGQGTRLEIK
notes: human IgG1
For B5, the results for the Kd with DR3-8i [3], with DR3-8i [4] and in the experiment with DR3-8i [5] were 316 pM, 2.02 pM and 159 pM, respectively. Also, the “EC50 (pM), DR3 Jurkat reporter” value in experiment [2] is 336 pM. Also, in experiment [2], the “Signal (FLU)” value is 2.44e+06 FLU.

B6: VHg5/VLg12 (antibody, human IgG1, V domains shown)
VH: QVQLQQSGGGLVQAGGSLRLSCAASGFTFTSYAMSWVRQAPGKGLEWVATISDGDSYSYFPDSVKDRFIISRDNAKNSLFLQMNSLRAEDTAVYYCARDRIYGSVQYYAMDYWGRGTLVTVSS
VL: EIVLTQSPATLSLSPGERATLSCRASESVEFSGTSLMQWYQQKPGQAPRLLIYAASNVESGIPARFSGSGSGTDFTLTISSLEPEDFAVYYCQQSRKLPYTFGQGTKLEIK
notes: human IgG1
In the experiment with DR3-8i [1], B6 returned a Kd of 126 pM. The “Signal (FLU)” value in experiment [2] amounted to 2.62e+06 FLU.

B7: VHg5/VLg2 (antibody, human IgG1, V domains shown)
VH: QVQLQQSGGGLVQAGGSLRLSCAASGFTFTSYAMSWVRQAPGKGLEWVATISDGDSYSYFPDSVKDRFIISRDNAKNSLFLQMNSLRAEDTAVYYCARDRIYGSVQYYAMDYWGRGTLVTVSS
VL: DIQLTQSPSSLSASVGDRVTITCRASESVEFSGTSLMQWYQQKAGLAPKLLIYAASNVESGVPSRFSGSGSGTDFTLTISSLQPEDFGTYYCQQSRKLPYTFGQGTRLEIK
notes: human IgG1
In the experiment with DR3-8i [1], B7 showed a Kd of 132 pM. The “Signal (FLU)” value in experiment [2] came out at 2.76e+06 FLU.

B8: VHg6/VLg1 (antibody, human IgG1, V domains shown)
VH: QVQLQQSGGGLVQPGGSLRLSCAASGFTFSSYAMSWVRQAPGKGLEWVATISDGDSYSYFPDSVKDRFTISRDNARNSLYLQMNSLRAEDTAVYYCARDRIYGSVQYYAMDYWGRGTLVTVSS
VL: DVVMTQSPDSLAVSLGERATINCRASESVEFSGTSLMQWYQQKPGQPPKLLIYAASNVESGVPDRFSGSGSGTDFTLTISSLQAEDVVVYYCQQSRKLPYTFGGGTKVEIK
notes: human IgG1
With B8, the Kd with DR3-8i [1] worked out at 76 pM. In addition, the “Signal (FLU)” value in experiment [2] is 2.16e+06 FLU.

B9: VHg5/VLg13 (antibody, human IgG1, V domains shown)
VH: QVQLQQSGGGLVQAGGSLRLSCAASGFTFTSYAMSWVRQAPGKGLEWVATISDGDSYSYFPDSVKDRFIISRDNAKNSLFLQMNSLRAEDTAVYYCARDRIYGSVQYYAMDYWGRGTLVTVSS
VL: DIQMTQSPSSLSASVGDRVTITCRASESVEFSGTSLMQWYQQKPGKAPKLLIYAASNVESGVPSRFSGSGSGTDFTFTISSLQPEDIATYYCQQSRKLPYTFGQGTKLEIK
notes: human IgG1
With B9, binding in the experiment with DR3-8i [1] was characterised by a dissociation constant (Kd) of 124 pM. Besides, the “Signal (FLU)” value in experiment [2] came out at 2.7e+06 FLU.

B10: VHg2/VLg4 (antibody, human IgG1, V domains shown)
VH: QMQLVQSGGGLVKPGGSLRLSCAASGFTFSSYAMSWIRQAPGKGLEWVSTISDGDSYSYFPDSVKDRFTISRDNAKNSLYLQMNSLRAEDTAVYYCTRDRIYGSVQYYAMDYWGRGTLVTVSS
VL: DVVMTQSPDSLAVSLGERATISCRASESVEFSGTSLMQWYQQKPRQPLKLLIYAASNVESGVPDRFSGSGSGTDFTLTISSLQAEDVAVYYCQQSRKLPYTFGQGTRLEIK
notes: human IgG1
In the case of B10, in the experiment with DR3-8i [1], the Kd is 24.8 pM. The “Signal (FLU)” value in experiment [2] was 2.21e+06 FLU.

B11: VHg3/VLg4 (antibody, human IgG1, V domains shown)
VH: EVQLVQSGGGLVKPGGSLRLSCAASGFKFSSYAMSWVRQAPGKGLEWLSTISDGDSYSYFPDSVKDRFIISRDNAKNSLYLQMNSLRVEDTGVYYCARDRIYGSVQYYAMDYWGQGTLVTVSS
VL: DVVMTQSPDSLAVSLGERATISCRASESVEFSGTSLMQWYQQKPRQPLKLLIYAASNVESGVPDRFSGSGSGTDFTLTISSLQAEDVAVYYCQQSRKLPYTFGQGTRLEIK
notes: human IgG1
Consider B11, for which the Kd with DR3-8i [1] came to 385 pM. Moreover, the “Signal (FLU)” value in experiment [2] turned out to be 2.32e+06 FLU.

B12: VHg6/VLg2 (antibody, human IgG1, V domains shown)
VH: QVQLQQSGGGLVQPGGSLRLSCAASGFTFSSYAMSWVRQAPGKGLEWVATISDGDSYSYFPDSVKDRFTISRDNARNSLYLQMNSLRAEDTAVYYCARDRIYGSVQYYAMDYWGRGTLVTVSS
VL: DIQLTQSPSSLSASVGDRVTITCRASESVEFSGTSLMQWYQQKAGLAPKLLIYAASNVESGVPSRFSGSGSGTDFTLTISSLQPEDFGTYYCQQSRKLPYTFGQGTRLEIK
notes: human IgG1
Take B12: the Kd was 227 pM with DR3-8i [3], 159 pM with DR3-8i [4] and 193 pM with DR3-8i [5]. Further, the “EC50 (pM), DR3 Jurkat reporter” value in experiment [2] was 118 pM. Further, the “Signal (FLU)” value in experiment [2] was determined as 2.44e+06 FLU.

B13: VHg2/VLg13 (antibody, human IgG1, V domains shown)
VH: QMQLVQSGGGLVKPGGSLRLSCAASGFTFSSYAMSWIRQAPGKGLEWVSTISDGDSYSYFPDSVKDRFTISRDNAKNSLYLQMNSLRAEDTAVYYCTRDRIYGSVQYYAMDYWGRGTLVTVSS
VL: DIQMTQSPSSLSASVGDRVTITCRASESVEFSGTSLMQWYQQKPGKAPKLLIYAASNVESGVPSRFSGSGSGTDFTFTISSLQPEDIATYYCQQSRKLPYTFGQGTKLEIK
notes: human IgG1
The molecule B13 came in with a Kd in the experiment with DR3-8i [1] of 157 pM. For the same molecule, in experiment [2], the “Signal (FLU)” value stood at 2.94e+06 FLU.

B14: VHg5/VLg11 (antibody, human IgG1, V domains shown)
VH: QVQLQQSGGGLVQAGGSLRLSCAASGFTFTSYAMSWVRQAPGKGLEWVATISDGDSYSYFPDSVKDRFIISRDNAKNSLFLQMNSLRAEDTAVYYCARDRIYGSVQYYAMDYWGRGTLVTVSS
VL: DIVMTQSPDSLAVSLGERATINCRASESVEFSGTSLMQWYQQKPGQPPKLLIYAASNVESGVPDRFSGSGSGTDFTLTISSLQAEDVAVYYCQQSRKLPYTFGQGTKLEIK
notes: human IgG1
In the experiment with DR3-8i [1], B14 gave a Kd of 88.1 pM. In addition, the “Signal (FLU)” value in experiment [2] stood at 2.4e+06 FLU.
